According to the nanobody polyreactivity screen of Harvey et al. (2022):

Assay: yeast display, Sf9 membrane polyspecificity reagent, FACS + sequencing; frameworks hold sequencing errors
How it was run: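 Using colony PCR, genes from sorted yeast display clones were amplified, then sequenced on MiSeq at 2 × 250 and filtered by CDR length. The clones had been stained with 10% biotinylated, detergent-solubilized Sf9 membrane reagent for 1 hour at 4 °C and sorted by FACS into low and high (top ~1%) gates on anti-HA and streptavidin fluorescence. Polyreactivity labels come from the gate of origin.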

Row | Sequence | polyreactivity (PSR sort gate)
1 | QVQLVESGGGLVQAGGSLRLSCAASGFIIGYYAMGWYRQAPGKVREFVAAISRSGGSTYYADSVKGRFTISRDNAKNTVYLQMNSLKPEDTSVYYCAADYQKTYTSKFNYWGQGTQVTVSS | high polyreactivity
2 | QVQLVESGGGLVQAGGSLRLSCAASGFIIKVYAMGWYRQAPGKERELVAAITWSGGSTYYADSVKGRFTISRDNAKNTVYLQMNSLKPEDTAVYYCAADTYYPDWITYPQGDFDYWGQGTQVTVSS | low polyreactivity
3 | QVQLVESGGGLVQAGGSLRLSCAASGFIIKYYAMGWYRQAPGKERELVAAIDGSSASTYYADSVKGRFTISRDNAKNTVYLQMNSLKPEDTPVYYCAVARLRRGGVQYGYWGQGTQVTVSS | high polyreactivity
4 | QVQLVESGGGLVQAGGSLRLSCAASGFIIPGYAMGWYRQAPGKEREFVAAISRSGGSTYYADSVKGRFTISRDNAKNTVYLQMNSLKPEDSAVYYCATRARGYTGYDYWGQGTQVTVSS | high polyreactivity
5 | QVQLVESGGGLVQAGGSLRLSCAASGFIIRGNVMGWYRQAPGKERELVAAISGRGGSTYYADSVKGRFTISRDNAKNTVYLQMNSLKPEDTAVYYCNAAGLYNSRLDYWGQGTQVTVSS | high polyreactivity
6 | QVQLVESGGGLVQAGGSLRLSCAASGFIIRRYAMGRYRQAPGKEREMVASIDRSGASTYYADSVKGRLTISRDNAKYTVYLQMNSLKPEDTAVYYCNKAFAWTGWYSVQGDYWGQGTQVTVSS | high polyreactivity
7 | QVQLVESGGGLVQAGGSLRLSCAASGFIIVYYAMGWYRQAPGKERELVAGISSGGSTYYADSVKGRFTISRDNAKNTVYLQMNSLKPEDTAVYYCATRYLYRGYSYFAYDYWGQGTQVTVSS | low polyreactivity
8 | QVQLVESGGGLVQAGGSLRLSCAASGFILAQNAKGWSRQAPGKEWELVAAISRRGGRTSYADSVKGRFTISRDNAKNTVYLQMNSLKPEDTAVYYCAALPPRASSDAGGWYVAEDYWGQGTQVTVSS | high polyreactivity
9 | QVQLVESGGGLVQAGGSLRLSCAASGFILATNAMGWSRQAPGKERELVAAISYAGGSTNYADSVKGRFTISRDNAKNTVYVPMNSLKPEDTAVYYCNAGGTVIWAWYCPVYSWGHGTQVTVSS | low polyreactivity
10 | QVQLVESGGGLVQAGGSLRLSCAASGFILDTYGMGWYRQAPGKERELVAAISQSDVSTYYADSVKGRFTISRDNAKNTVYLQMNSLKPEDTAVYYCAADRGGLRWFWQVLYDYWGQGTQVTVSS | low polyreactivity
11 | QVQLVESGGGLVQAGGSLRLSCAASGFILGYNAMGLYRQAPGKERELVAAINGGSGSTYYADSVKGRFTISRDNAKNTVYLQMNSLKPEDTAVYYCAAEVTWAFFYERDYWGQGTQVTVSS | high polyreactivity
12 | QVQLVESGGGLVQAGGSLRLSCAASGFILGYNAMGWYRQEPGKERELVADITFSGGGTNYADSVKGRFTISRDNAKNTVYLQMNSLKPEDTAVYYCNAAAFSQLRVRYDYWGQGTQVTVSS | low polyreactivity
13 | QVQLVESGGGLVQAGGSLRLSCAASGFILKFYAMGWYRQAPGKERELVAAISRRGGSTYYADSVKGRFTISRDNAKNTVYLQMNSLKPEDTAVYHCAKDGTTSRVSDSSDYWGQGTQVTVSS | high polyreactivity
14 | QVQLVESGGGLVQAGGSLRLSCAASGFILKYYAMGWYRQAPGKERELVAAISVRGGSTYYADSVKGRFTISRDNAKNTVYLQMNSLKPEDTAVYYCAARHRYGGAFVDYDYWGQGTQVTVSS | high polyreactivity
15 | QVQLVESGGGLVQAGGSLRLSCAASGFILLDNAMGWYRQAPGKEREFVASINISGDRTFYADSVKGRFTISRDNAKNTDYLQMNSLKPEDTAVYYCNALPSEPMVYWGQGTQVTVSS | low polyreactivity
16 | QVQLVESGGGLVQAGGSLRLSCAASGFILLDNGMGWYREAPGKERELVAAITYSGDTTYYADSVKGRFTISRDNAKNTVYLQMNSLKPEDTAVYYCNADNDKWTTGHDYWGQGTQVTVSS | low polyreactivity
17 | QVQLVESGGGLVQAGGSLRLSCAASGFILLQYVMGWYRQAPGKERELVAAITSGGSTYYADSVKGRFTISRDNAKYTVYLQMNSLKPEDTAVYYCSTDVADNTFYALYGYDYWGQGTQVTVSS | low polyreactivity
18 | QVQLVESGGGLVQAGGSLRLSCAASGFILLYYAMGWYRQAPGKERELVAANSWTGGRTYYADSVKGRFTISRDNAKNTVYLQMTSLKPEDSAVYYCNTDKFFGRKYGYWGQGTQVTVSS | low polyreactivity
19 | QVQLVESGGGLVQAGGSLRLSCAASGFILNKNVMGWYRQAPGKERELVAAITGSGGRTYYADSVKGRFSISRDNAKNTVYLQMNSLKPEDTAVYYCAARRPLVRYIMGYWGQGTQVTVSS | high polyreactivity
20 | QVQLVESGGGLVQAGGSLRLSCAASGFILPWYVMGWYRQAPGKERELVAAISGTGGSTYYADSVKGRFTISRDNAKNTVYLQMNSLKPEDTAVYYCAAGAFYAGYYWEFYYWGQGTQVTVSS | high polyreactivity
21 | QVQLVESGGGLVQAGGSLRLSCAASGFILTDNAKGWNRQAPGKERELVAAINSGGSTYYADSVKGRFTISRDNAKNTVYLQMNSLKPEDTEVYYCAADYSTWLRAYDYWGQGTQVTVSS | low polyreactivity
22 | QVQLVESGGGLVQAGGSLRLSCAASGFILTLYAMGWYRQAPGKERELVASISRRGGSTYYADSVKGRFTISRDNAKNTVYLQMNSLKPEDTAVYYCNAQGYRRGYDYWGQGTQVTVSS | high polyreactivity

Row | Sequence | polyreactivity (PSR sort gate)
23 | QVQLVESGGGLVQAGGSLRLSCAASGFILYGNTMGWYRHAPGKDRELVAAISWSGGNTRYADSVKGRFTISRDNAKNTVYLQMNSLKQDDTAVYYCAAYSKYVLSIRRDYWGQGTQVTVSS | low polyreactivity
24 | QVQLVESGGGLVQAGGSLRLSCAASGFILYSYAMGWYRQAPGKERELVADITGTGGRTYYADSVKGRFTISRDNAKNTVYLQMNSLKPEDTAVYYCNKGPFFVFRTTRYYEYDYWGQGTQVTVSS | low polyreactivity
25 | QVQLVESGGGLVQAGGSLRLSCAASGFIMQYNAMGRYIQAPRKERELVAAITRSGVSTHYADSVKGRYTISRDNAKNTVYLQMISLKPEDTAVYYCARTGQSLYSRYYYWGQGTQVTVSS | low polyreactivity
26 | QVQLVESGGGLVQAGGSLRLSCAASGFIRTAYAMGWYRQAPGKERELVAAIDWIGGSTYYADSVKGRFTISRDNAKNTVYLQMNSLKPEDTAVYYCAAVRYYWGQGTQVTVSS | low polyreactivity
27 | QVQLVESGGGLVQAGGSLRLSCAASGFISAYYAMGWYRQAPGKEMELVAAISWNGGRTFYADSVKGRFTISRDNAKNTVYLQMNSLKPEDTAVYYCAARYNGYANPYYYWGQGTQVTVSS | high polyreactivity
28 | QVQLVESGGGLVQAGGSLRLSCAASGFISDYYAMGWDRQAPGKERELVADISSGGSTYYADSVKGRCTISRDNAKNTVYLQMNSLKPEDTAVYYCNAGDYFVRFVYYWDDERYDYWGQGTQVTVSS | low polyreactivity
29 | QVQLVESGGGLVQAGGSLRLSCAASGFISGFYGMGWYIQAPGKEREFVAAIDFIDGDTYYADSVKGRFTISRDKAKNTVYLQMNSLKPEDTAVYYCAADGSFCQFDYWGQGTQVTVSS | low polyreactivity
30 | QVQLVESGGGLVQAGGSLRLSCAASGFISGFYGMGWYRQAPGKEREFVAAIDFIDGDTYYADSVKGRFTISRDNAKNTVYLQMNSLKPEDTAVYYCAADGSFWQFDYWGQGTQVTVSS | low polyreactivity
31 | QVQLVESGGGLVQAGGSLRLSCAASGFISNDNAMGWYRQAPGKERELVATIDISDASTYYADSVKGRFTISRDNAKNTVYLQMNSLKPEDTAVYYCAAESDEWFTWYWYGYWGQGTQVTVSS | low polyreactivity
32 | QVQLVESGGGLVQAGGSLRLSCAASGFISPGYAMGWYRQAPGKERELVAAITRDGGTYYADSVKGRFTISRDNAKNTVYLQMNSLKPEDTAVYYCAAEGSFRKFDYWGQGTQVTVSS | low polyreactivity
33 | QVQLVESGGGLVQAGGSLRLSCAASGFISPPYAMGWYRQAPGKERELVAAIRSSGGSTYYADSVKGRFTISRDNAKNTVYLQMNSLKPEDTAVYYCNADWIYISSYGWYSYDYWGQGTQVTLSS | high polyreactivity
34 | QVQLVESGGGLVQAGGSLRLSCAASGFISPPYAMGWYRQAPGKERELVAAIRSSGGSTYYADSVKGRFTISRDNPKNTVYLQMNSLKPEDTAVYYCNADWIYISSYGWYSYDYWGQGTQVTVSS | high polyreactivity
35 | QVQLVESGGGLVQAGGSLRLSCAASGFISPYAMRWYRQAPGKERELVAVITSSGGSTYYADSVKGRFTISRDNAKNTVYLQMNSLKPEDTAVYYCAARFYFRWYYYGSYANYWGQGTQVTVSS | high polyreactivity
36 | QVQLVESGGGLVQAGGSLRLSCAASGFISRNAMGWYRQAPGKERELVAAITRGGSTNYADSVKGRFTISRDNAKNTVYLQMNRLKPEDTAVYYCNKQRQGNSRSYYQTYYGMYYWGQGTQVTVSS | high polyreactivity
37 | QVQLVESGGGLVQAGGSLRLSCAASGFISSRYAMGWYRQAPGKERELVASINWSGGSTYYADSVKGRFTISRDNAKNTVYLQMNSLKPEDTAVYYCNRVLDPTNKYYYWGQGTQVTVSS | high polyreactivity
38 | QVQLVESGGGLVQAGGSLRLSCAASGFISTPYAMGWYRQAPGKERELVAAIDISGGRTYYADSVKGRFTISRDNAKNTVYLQMNSLKPEDTAVYYCAAQLVSSYYAWYRTYYYWGQGTQVTVSS | high polyreactivity
39 | QVQLVESGGGLVQAGGSLRLSCAASGFISYYYAMGWYRHAPGKEREFVAAITSSGGSTRYADSVKGCFTISRDNAKNTVYLQMNSLKPEDTAVYYCAAGNPYFWPYDYWGQGTQVTVSS | low polyreactivity
40 | QVQLVESGGGLVQAGGSLRLSCAASGFITPWYAMGWYRQAAGKEREWVAAIDWSGGSTYYADSVKGRFTISRDNAKNSVYLQMNSVKPEDTAVYYCAARYYTASVRAGRVRMYYWGQGTQVTVSS | high polyreactivity
41 | QVQLVESGGGLVQAGGSLRLSCAASGFIVGRYAMGWYRQAPGNERELVAAITRSGGSTYYADSVKGRFTISRDNAKNTVYLQMISLKPEQTAVYFGAAYPGRAQVAYDYWGQGTQVTVSS | high polyreactivity
42 | QVQLVESGGGLVQAGGSLRLSCAASGFIVRSYAMGWYRQAPGKERELVAVISRRGVNTHYADSVKGRFTISRDNAKNTVYFQMNSLKPEDTAVYYCAKGLTALGDYWGQGTQVTVSS | high polyreactivity
43 | QVQLVESGGGLVQAGGSLRLSCAASGFIWSYVMGWYRQAPGKESQLVAAISRSCGRTYYADSVKGRFTISRDNAKNTVYLQMNSLKPEDTAVYYCAKDGGWSRLHYNYWGQGNQVTVSS | high polyreactivity
